± gives the uncertainty stated by the source.
B1: POU domain, class 3, transcription factor 1, residues 247 to 324; numbered along this chain, Q03052 (parent)
chain: EDAPSSDDLEQFAKQFKQRRIKLGFTQADVGLALGTLYGNVFSQTTICRFEALQLSFKNMCKLKPLLNKWLEETDSSS

Variants of: B1
Test: abundance fitness (aPCA) (normalised: wild type 0, dead -1); higher = more abundant; growth selection in yeast, the domain comes from the species named
Conditions: Homo sapiens

Abundance fitness, by site and new letter:
L23: F -0.219 ± 0.15 | E -0.47 ± 0.15 | C -0.629 ± 0.16 | D -0.301 ± 0.2 | S -0.59 ± 0.13 | I -1 ± 0.49 | W -0.224 ± 0.09 | V -0.686 ± 0.11 | R -0.313 ± 0.068 | Q -0.31 ± 0.12 | G -0.56 ± 0.12 | M 0.124 ± 0.072 | T -0.647 ± 0.17 | A -0.226 ± 0.075
F25: Q -0.511 ± 0.14 | V -0.31 ± 0.086 | D -0.811 ± 0.45 | G -0.859 ± 0.15 | L -0.12 ± 0.069 | R -0.342 ± 0.072 | W -0.536 ± 0.14 | N -0.531 ± 0.24 | P -0.965 ± 0.25 | S -0.505 ± 0.12 | M -0.276 ± 0.13 | Y 0.112 ± 0.14 | I -0.404 ± 0.2 | C -0.217 ± 0.13 | K -0.095 ± 0.094
F16: M -0.612 ± 0.23 | Q -0.541 ± 0.19 | L -0.633 ± 0.14 | P -0.789 ± 0.23 | T -0.429 ± 0.16 | R -0.621 ± 0.084 | D -0.83 ± 0.28 | K -0.61 ± 0.19 | G -0.572 ± 0.089 | E -0.585 ± 0.19 | A -0.779 ± 0.15 | N -0.713 ± 0.37 | V -0.515 ± 0.1 | I -0.532 ± 0.25 | W -0.736 ± 0.15
G35: A -0.097 ± 0.067 | K -0.125 ± 0.12 | P -1.13 ± 0.31 | M -0.4 ± 0.12 | H -0.37 ± 0.24 | F -0.211 ± 0.19 | C -0.299 ± 0.12 | Q -0.125 ± 0.1 | D -0.571 ± 0.22
A33: K -0.067 ± 0.089 | Q 0.096 ± 0.081 | D -0.504 ± 0.16 | T -0.405 ± 0.16 | P -0.645 ± 0.2 | E 0.047 ± 0.074 | C -0.474 ± 0.15 | H -0.332 ± 0.28 | Y -0.221 ± 0.17 | V -0.255 ± 0.08 | N -0.075 ± 0.18 | I -0.317 ± 0.2 | W -0.195 ± 0.068 | L 0.003 ± 0.067 | F -0.105 ± 0.12
K14: C -0.27 ± 0.12 | F -0.386 ± 0.18 | S -0.492 ± 0.1 | P -0.573 ± 0.26 | I -0.19 ± 0.17 | Q 0.048 ± 0.084 | T -0.03 ± 0.1 | R -0.195 ± 0.064 | Y -0.233 ± 0.13 | L -0.159 ± 0.076 | D -0.78 ± 0.35 | E -0.053 ± 0.077 | N -0.211 ± 0.15 | W -0.419 ± 0.11 | H 0.468 ± 0.16
R20: V -0.636 ± 0.11 | L -0.637 ± 0.11 | A -0.653 ± 0.13 | T -0.815 ± 0.21 | H -0.508 ± 0.32 | P -0.744 ± 0.24 | F -0.353 ± 0.3 | I -0.971 ± 0.44 | D -0.645 ± 0.46 | Q -0.733 ± 0.22 | S -0.813 ± 0.17 | M -0.915 ± 0.27 | K -1.11 ± 0.43 | W -0.973 ± 0.24 | G -0.896 ± 0.13 | E -0.845 ± 0.19
Q15: F -0.122 ± 0.37 | T -0.112 ± 0.1 | M 0.124 ± 0.075 | H -0.075 ± 0.14 | D 0 ± 0.12 | P -0.745 ± 0.21 | A -0.067 ± 0.065 | C -0.342 ± 0.16 | V -0.078 ± 0.06 | E -0.092 ± 0.082 | N 0.301 ± 0.16 | R -0.047 ± 0.053 | K -0.118 ± 0.085 | L -0.184 ± 0.076 | S -0.014 ± 0.079 | W -0.288 ± 0.12 | G -0.18 ± 0.056 | I 0.2 ± 0.21
G31: A 0.161 ± 0.062 | P -0.983 ± 0.29 | M -0.494 ± 0.18 | H -0.228 ± 0.4 | L -0.509 ± 0.13 | N -0.437 ± 0.25 | R -0.46 ± 0.073 | Y -0.957 ± 0.4 | K -0.702 ± 0.22 | V -0.262 ± 0.07 | T -0.085 ± 0.2 | Q -0.337 ± 0.11 | W -0.444 ± 0.1 | E -0.18 ± 0.095 | D -0.417 ± 0.19 | S 0.04 ± 0.069
A28: N -0.285 ± 0.35 | C -0.239 ± 0.12 | K -0.111 ± 0.11 | V -0.495 ± 0.093 | P -0.758 ± 0.21 | Y -0.213 ± 0.16 | M -0.149 ± 0.083 | W -0.371 ± 0.09 | T -0.037 ± 0.076 | S -0.237 ± 0.077 | D -0.317 ± 0.26 | Q -0.225 ± 0.1 | L -0.405 ± 0.075 | G -0.083 ± 0.052 | R 0.069 ± 0.047 | E -0.008 ± 0.064 | I -0.608 ± 0.46 | H -0.24 ± 0.21
V30: E -0.601 ± 0.18 | W -0.386 ± 0.11 | Q -0.759 ± 0.28 | I -0.055 ± 0.13 | T -0.807 ± 0.21 | F -0.485 ± 0.23 | A -0.411 ± 0.1 | G -0.957 ± 0.14 | K -0.425 ± 0.14 | R -0.975 ± 0.14 | M -0.65 ± 0.21 | L -0.175 ± 0.081 | N -0.281 ± 0.28 | P -0.787 ± 0.19 | C -0.319 ± 0.25 | H -0.303 ± 0.26
